Test results from US20260166139A1.
Values joined by “and” are separate entries in the source; they are usually repeats but may differ in a detail not shown here. Equal entries are not always repeated.

Tests used:
CTLA4-mFc [1] = test: competitive ELISA, competitor B7-1; control run with 8D2H1L1
human CTLA4 (human) [2] = biological target: human CTLA4 (human) (UniProt P16410); test: ELISA, coat CTLA4 0.5 ug/ml; antibody 1:729 (start 1 ug/ml)
[3] = biological target: monkey CTLA4-hFc (monkey); test: ELISA, coat monkey CTLA4-hFc 0.25 ug/ml; antibody 1:9 (start 1 ug/ml)
CTLA4-mFc [4] = test: competitive ELISA, B7/1-hFc coated (competitor), CTLA4-mFc added; antibody 5 µg/ml diluted 1:27
CTLA4-mFc [5] = test: competitive ELISA, competitor B7-1; control run with 8D2H3L3
[6] = biological target: monkey CTLA4-hFc (monkey); test: ELISA, coat monkey CTLA4-hFc 0.25 ug/ml; antibody 1:729 (start 1 ug/ml)
CTLA4-mFc [7] = test: competition ELISA, coat B7/1-hFc 0.2 ug/ml (competitor), CTLA4-mFc 0.3 ug/ml detected; antibody 1:27 (start 3 ug/ml)
CTLA4-mFc [8] = test: competitive ELISA, B7/1-hFc coated (competitor), CTLA4-mFc added; antibody 5 µg/ml diluted 1:3
CTLA4-mFc [9] = test: competition ELISA, coat B7/1-hFc 0.2 ug/ml (competitor), CTLA4-mFc 0.3 ug/ml detected; antibody 1:729 (start 3 ug/ml)
CTLA4-mFc [10] = test: competitive ELISA, CTLA4-mFc coated, competitor B7/2-His; antibody 1 µg/ml diluted 1:81
CTLA4-mFc [11] = test: competitive ELISA, competitor B7-2; control run with 8D2(Re)
CTLA4-mFc [12] = test: competitive ELISA, CTLA4-mFc coated, competitor B7/2-His; antibody 1.5 µg/ml diluted 1:729
CTLA4-mFc [13] = test: competitive ELISA, CTLA4-mFc coated, competitor B7/2-His; antibody 1 µg/ml diluted 1:27
human CTLA4 (human) [14] = biological target: human CTLA4 (human) (UniProt P16410); test: ELISA, coat human CTLA4 0.5 ug/ml; antibody 1 ug/ml
CTLA4-mFc [15] = test: competitive ELISA, CTLA4-mFc coated, competitor B7/2-His; antibody 1 µg/ml diluted 1:9
[16] = biological target: CTLA4 antigen (NCBI Gene ID: 1493) obtained by TEV protease cleavage of CTLA4-mFc (Homo sapiens (Human)) (UniProt P16410); test: BLI (Fortebio), antibody on AR2G sensor, CTLA4 in solution
CTLA4-mFc [17] = test: competitive ELISA, CTLA4-mFc coated, competitor B7/2-His; antibody 1 µg/ml
human CTLA4 (human) [18] = biological target: human CTLA4 (human) (UniProt P16410); test: ELISA, coat human CTLA4 0.5 ug/ml; antibody 1:243 (start 1 ug/ml)
human CTLA4 (human) [19] = biological target: human CTLA4 (human) (UniProt P16410); test: ELISA, coat human CTLA4 0.5 ug/ml; antibody 1 ug/ml; remark: listed apart in the source
CTLA4-mFc [20] = test: competitive ELISA, CTLA4-mFc coated, competitor B7/2-His; antibody 3 µg/ml diluted 1:27
human CTLA4 (human) [21] = biological target: human CTLA4 (human) (UniProt P16410); test: ELISA, coat human CTLA4 0.5 ug/ml; antibody 1:81 (start 1 ug/ml)
human CTLA4 (human) [22] = biological target: human CTLA4 (human) (UniProt P16410); test: ELISA, coat CTLA4 0.5 ug/ml; antibody 1:243 (start 1 ug/ml)
CTLA4-mFc [23] = test: competition ELISA, coat B7/1-hFc 0.2 ug/ml (competitor), CTLA4-mFc 0.3 ug/ml detected; antibody 1:9 (start 3 ug/ml)
CTLA4-mFc [24] = test: competitive ELISA, B7/1-hFc coated (competitor), CTLA4-mFc added; antibody 5 µg/ml diluted 1:27; remark: listed apart in the source
CTLA4-mFc [25] = test: competitive ELISA, competitor B7-2; control run with 8D2H1L1
human CTLA4 (human) [26] = biological target: human CTLA4 (human) (UniProt P16410); test: ELISA, coat human CTLA4 0.5 ug/ml; antibody 1:729 (start 1 ug/ml)
CTLA4-mFc [27] = test: competitive ELISA, competitor B7-1; control run with 8D2H2L17
human CTLA4 (human) [28] = biological target: human CTLA4 (human) (UniProt P16410); test: ELISA, coat human CTLA4 0.5 ug/ml; antibody 1:27 (start 1 ug/ml)
CTLA4-mFc [29] = test: competitive ELISA, CTLA4-mFc coated, competitor B7/2-His; antibody 3 µg/ml diluted 1:81
CTLA4-mFc [30] = test: competitive ELISA, competitor B7-2; control run with 8D2H2L2
human CTLA4 (human) [31] = biological target: human CTLA4 (human) (UniProt P16410); test: ELISA on coated CTLA4, source Human (row of 8D2H2L15)
murine CTLA4 (murine) = murine CTLA4 (murine) (UniProt P09793); test: ELISA on coated CTLA4, source Mouse (row of 8D2H1L1)
CTLA4-mFc [32] = test: competitive ELISA, B7/1-hFc coated (competitor), CTLA4-mFc added; antibody 5 µg/ml
CTLA4-mFc [33] = test: competitive ELISA, CTLA4-mFc coated, competitor B7/2-His; antibody 3 µg/ml diluted 1:3
CTLA4-mFc [34] = test: competitive ELISA, CTLA4-mFc coated, competitor B7/2-His; antibody 0 (no antibody)
CTLA4-mFc [35] = test: competitive ELISA, B7/1-hFc coated (competitor), CTLA4-mFc added; antibody 5 µg/ml diluted 1:729
CTLA4-mFc [36] = test: competitive ELISA, B7/1-hFc coated (competitor), CTLA4-mFc added; antibody 5 µg/ml diluted 1:243

Sequence of CTLA4 antigen (NCBI Gene ID: 1493) obtained by TEV protease cleavage of CTLA4-mFc (Homo sapiens (Human)) (P16410 37-161 limits assumed): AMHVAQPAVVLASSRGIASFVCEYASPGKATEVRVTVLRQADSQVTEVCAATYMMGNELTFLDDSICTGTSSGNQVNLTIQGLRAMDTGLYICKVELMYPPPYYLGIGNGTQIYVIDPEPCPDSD
Sequence of CTLA4-mFc (chain, as listed by the source limits assumed): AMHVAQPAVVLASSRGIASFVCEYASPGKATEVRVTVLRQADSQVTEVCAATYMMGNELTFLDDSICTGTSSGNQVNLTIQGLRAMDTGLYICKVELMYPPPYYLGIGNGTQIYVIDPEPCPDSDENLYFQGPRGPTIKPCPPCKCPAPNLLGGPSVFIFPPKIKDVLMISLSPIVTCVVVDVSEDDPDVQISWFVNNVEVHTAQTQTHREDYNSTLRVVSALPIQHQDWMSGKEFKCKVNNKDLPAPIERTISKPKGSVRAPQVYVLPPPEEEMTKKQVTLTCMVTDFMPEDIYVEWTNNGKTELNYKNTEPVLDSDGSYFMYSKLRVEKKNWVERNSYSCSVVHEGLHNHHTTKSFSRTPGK
Sequence of human CTLA4 (human) (P16410 36-161 limits assumed): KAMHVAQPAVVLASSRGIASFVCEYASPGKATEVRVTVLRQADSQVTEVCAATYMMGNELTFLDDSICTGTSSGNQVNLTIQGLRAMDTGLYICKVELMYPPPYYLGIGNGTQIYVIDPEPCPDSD
Sequence of control antibody 11.2.1 (VH): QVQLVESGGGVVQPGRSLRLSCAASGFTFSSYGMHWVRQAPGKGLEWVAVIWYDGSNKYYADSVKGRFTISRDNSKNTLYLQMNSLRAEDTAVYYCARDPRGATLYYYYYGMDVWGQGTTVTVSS
Sequence of control antibody 11.2.1 (VL): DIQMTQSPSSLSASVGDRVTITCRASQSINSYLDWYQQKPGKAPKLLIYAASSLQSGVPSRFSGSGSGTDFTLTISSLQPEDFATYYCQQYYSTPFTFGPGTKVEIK

In the case of control antibody 11.2.1, the EC50 (CTLA4-mFc [1]) is reported as 1.69 nM, the absorbance at 450 nm (human CTLA4 (human) [2]) is reported as 0.32 and 0.31 and the absorbance at 450 nm [3] is reported as 1.11 and 1.05. For the same substance, the absorbance at 450 nm (CTLA4-mFc [4]) was 1.14 and 1.19, the EC50 (CTLA4-mFc [5]) was 1.07 nM and the absorbance at 450 nm [6] was 0.082 and 0.094. For the same substance, the absorbance at 450 nm (CTLA4-mFc [7]) was 0.597 and 0.579, the absorbance at 450 nm (CTLA4-mFc [8]) was 0.08 and the absorbance at 450 nm (CTLA4-mFc [9]) was 0.993 and 0.841. For the same substance, the absorbance at 450 nm (CTLA4-mFc [10]) was 0.84 and 0.76, the EC50 (CTLA4-mFc [11]) was 0.15 nM and the absorbance at 450 nm (CTLA4-mFc [12]) was 0.981 and 0.746. For the same substance, the absorbance at 450 nm (CTLA4-mFc [13]) was 0.57, the absorbance at 450 nm (human CTLA4 (human) [14]) was 3.58 and 3.55 and the absorbance at 450 nm (CTLA4-mFc [15]) was 0.17 and 0.16. For the same substance, the Kd [16] was 0.903 nM, the koff [16] was 0.000349 s⁻¹ and the kon [16] was 387000 M⁻¹ s⁻¹. For the same substance, the absorbance at 450 nm (CTLA4-mFc [17]) was 0.04, the absorbance at 450 nm (human CTLA4 (human) [18]) was 0.223 and 0.219 and the absorbance at 450 nm (human CTLA4 (human) [19]) was 2.21 and 2.15. For the same substance, the absorbance at 450 nm (CTLA4-mFc [20]) was 0.676 and 0.585, the absorbance at 450 nm (human CTLA4 (human) [21]) was 0.499 and 0.426 and the absorbance at 450 nm (human CTLA4 (human) [22]) was 0.75 and 0.79. The absorbance at 450 nm (CTLA4-mFc [23]) was 0.381 and 0.485, the absorbance at 450 nm (CTLA4-mFc [24]) was 0.488 and 0.369 and the EC50 (CTLA4-mFc [25]) was 0.15 nM. The absorbance at 450 nm (human CTLA4 (human) [26]) was 0.127 and 0.136, the EC50 (CTLA4-mFc [27]) was 2.61 nM and the absorbance at 450 nm (human CTLA4 (human) [28]) was 2.34 and 2.29. The absorbance at 450 nm (CTLA4-mFc [29]) was 1.12 and 0.965, the EC50 (CTLA4-mFc [30]) was 0.172 nM and the EC50 (human CTLA4 (human) [31]) was 0.075 nM. For the same substance, the EC50 (murine CTLA4 (murine)) was 0.023 nM, the absorbance at 450 nm (CTLA4-mFc [32]) was 0.06 and the absorbance at 450 nm (CTLA4-mFc [33]) was 0.387 and 0.402. For the same substance, the absorbance at 450 nm (CTLA4-mFc [34]) was 0.987 and 0.819, the absorbance at 450 nm (CTLA4-mFc [35]) was 1.32 and 1.31 and the absorbance at 450 nm (CTLA4-mFc [36]) was 1.3 and 1.31.
